The record followed here is patent publication US20120316071A1 (published 2012).

Test [1] deals with T1, rHuman Erythropoietin R/Fc Chimera, CF (R&D Systems Cat#963-ER) (human, UniProt P19235 25-250).
T1 construct: Bought from R&D Systems; also called EPO R/Fc; Epo R/Fc chimera; not shown: Fc of the bought chimera
T1 sequence (looked up): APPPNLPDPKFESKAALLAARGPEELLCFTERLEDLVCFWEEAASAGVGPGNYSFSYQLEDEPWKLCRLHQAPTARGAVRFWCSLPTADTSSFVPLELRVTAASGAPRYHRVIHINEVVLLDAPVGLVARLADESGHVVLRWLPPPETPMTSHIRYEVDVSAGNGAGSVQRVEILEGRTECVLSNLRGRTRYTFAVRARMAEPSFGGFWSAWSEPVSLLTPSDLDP
The test can be described thus: MSD multispot ECL, antigen spotted on plate, Fab 1410 nM; blank spot 709.

In test [2] the target is T2, rHuman Notch-1/Fc Chimera, CF (R&D Systems Cat#3647-TK) (human, UniProt P46531 19-526).
T2 construct: Bought from R&D Systems; not shown: Fc of the bought chimera
Described as above.

The target of test [3] is T3, rHuman IGF-1 sR, (IGF-1 sR), CF (R&D Systems Cat#391-GR) (human, UniProt P08069 31-932).
T3 construct: Bought from R&D Systems and called a soluble receptor; also called insulin-like growth factor-1 soluble receptor
The test is described as above.

In test [4] the target is T4, rHuman P-Cadherin/Fc Chimera, CF (R&D Systems Cat#861-PC) (human, UniProt P22223 108-654).
T4 construct: Bought from R&D Systems; not shown: Fc of the bought chimera
The description is as above.

Test [5] has as its target T5, rHuman CD44/Fc Chimera, CF (R&D Systems Cat#3660-CD) (human, UniProt P16070 21-220).
T5 construct: Bought from R&D Systems; not shown: Fc of the bought chimera
The test can be described thus: MSD multispot ECL, antigen spotted on plate, Fab 22 nM; blank spot 289.

The target of test [6] is T6, Recombinant Human DLL4 (R&D Systems Cat#1506-D4/CF) (human, UniProt Q9NR61 27-524).
T6 construct: Bought from R&D Systems; also called rHuman DLL4; delta-like protein 4
Described as above.

Test [7] concerns the target T7, rHuman ErbB2/Fc Chimera, CF (R&D Systems Cat#1129-ER) (human, UniProt P04626 23-652).
T7 construct: Bought from R&D Systems; also called human epidermal growth factor 2 receptor (ErbB2); not shown: Fc of the bought chimera
Described as above.

The target of test [8] is T8, rHuman EGF R/Fc Chimera, CF (R&D Systems Cat#344-ER) (human, UniProt P00533 25-645).
T8 construct: Bought from R&D Systems; also called epidermal growth factor receptor (EGF R); not shown: Fc of the bought chimera
The description is as above.

Test [9] addresses T1, rHuman Erythropoietin R/Fc Chimera, CF …. Described as above.
In test [10] the target is T2, rHuman Notch-1/Fc Chimera, CF (R&D …). The description is as above.
For test [11], the target named is T3, rHuman IGF-1 sR, (IGF-1 sR), CF (R&D …). The description is as above.
Test [12] concerns the target T9, rHuman HGF R/c-MET/Fc Chimera, CF (R&D Systems Cat#358-MT/CF) (human, UniProt P08581 25-932).
T9 construct: Bought from R&D Systems; also called HGF R/Fc; hepatocyte growth factor receptor (HGF R/c-Met); not shown: Fc of the bought chimera
Described as above.

For test [13], the target named is T4, rHuman P-Cadherin/Fc Chimera, CF (R&D …). Described as above.
The target of test [14] is T10, rHuman EGF R/Fc Chimera, CF (R&D Systems Cat#344-ER) (human, UniProt P00533 25-645).
T10 construct: Bought recombinant protein; also called epidermal growth factor receptor (EGF R); Fc part of the bought chimera not given
The test can be described thus: Multispot ECL (MSD) assay, antigen spotted on plate, Fab at 0.0624 µM; blank spot 960.

The target in test [15] is T11, rHuman IGF-1 sR, (IGF-1 sR), CF (R&D Systems Cat#391-GR) (human, UniProt P08069 31-932).
T11 construct: Bought recombinant soluble receptor; also called insulin-like growth factor-1 soluble receptor
The description is as above.

Test [16] has as its target T12, rHuman CD44/Fc Chimera, CF (R&D Systems Cat#3660-CD) (human, UniProt P16070 21-220).
T12 construct: Bought recombinant protein; Fc part of the bought chimera not given
The test is described as above.

In test [17] the target is T13, rHuman Erythropoietin R/Fc Chimera, CF (R&D Systems Cat#963-ER) (human, UniProt P19235 25-250).
T13 construct: Bought recombinant protein; also called EPO R/Fc; Epo R; Fc part of the bought chimera not given
T13 sequence (looked up): T1 sequence (looked up)
The description is as above.

For test [18], the target named is T14, rHuman HGF R/c-MET/Fc Chimera, CF (R&D Systems Cat#358-MT/CF) (human, UniProt P08581 25-932).
T14 construct: Bought recombinant protein; also called HGF R/Fc; hepatocyte growth factor receptor (HGF R/c-Met); Fc part of the bought chimera not given
Described as above.

B1: Fab VH1-46_IGHD3-10*01_IGHJ4*01 & B3_IGKJ1*01 (Fab, V domains shown)
VH: QVQLVQSGAEVKKPGASVKVSCKASGYTFTSYYMHWVRQAPGQGLEWMGIINPSGGSTSYAQKFQGRVTMTRDTSTSTVYMELSSLRSEDTAVYYCAREYYYGSGSYYNDYFDYWGQGTLVTVSS
VL: not shown
notes: Tested as a Fab made in E. coli; VH was cloned into Plasmid A (CH1 constant region, His6 and Flag tags); The kappa VL was cloned into Plasmid C (kappa CL)
B1: the ECL signal came out at 4310 in test [1]; 1030 in test [2]; 426 in test [3]; 1060 in test [4]; 317 in test [5]; 342 in [6]. Moreover, the ECL signal stood at 363 in [7]; 312 in test [8]; 2240 in test [9]; 389 in test [10]; 347 in test [11]; 203 in [12]. Further, the ECL signal in test [13] amounted to 215.

B2: Fab VH1-46_IGHD7-27*01_IGHJ2*01 & L6_IGKJ1*01 (Fab, V domains shown)
VH: QVQLVQSGAEVKKPGASVKVSCKASGYTFTSYYMHWVRQAPGQGLEWMGIINPSGGSTSYAQKFQGRVTMTRDTSTSTVYMELSSLRSEDTAVYYCARANWGYWYFDLWGRGTLVTVSS
VL: not shown
notes: Germline Fab made in E. coli; VH was cloned in Plasmid A (CH1 constant region, His6 and Flag tags) and the kappa VL in Plasmid C (kappa CL); Only the variable domains are tied to this Fab by name
For the molecule B2, the ECL signal worked out at 2420 in test [14]; 2030 in test [15]; 2110 in test [16]; 2680 in test [17]; 2450 in [18].
